Consider one substance from patent US20170145090A1.

The experiment deals with Human OSM (in-house, OSMN1-1) (human) (UniProt P13725). The experiment in a line: cell-based or functional assay.
Human OSM (in-house, OSMN1-1) (human), sequence (P13725 26-221 limits assumed): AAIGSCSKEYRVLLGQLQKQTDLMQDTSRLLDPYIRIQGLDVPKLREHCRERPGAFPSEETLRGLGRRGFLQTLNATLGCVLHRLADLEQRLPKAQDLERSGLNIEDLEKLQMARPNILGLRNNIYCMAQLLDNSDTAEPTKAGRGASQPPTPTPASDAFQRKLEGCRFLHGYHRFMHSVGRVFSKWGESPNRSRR

On to MAB295 (R&D Systems) (antibody), for which the pSTAT3 inhibition EC50 (ng/ml), A375 cells, 5 ng/ml hOSM came to 72.1 ng/ml.
